Results as given in PMC3680705.

Target: Drosophila Slit D1-4 (the four leucine-rich repeat domains) (Drosophila)
Experiment: ELISA

Chain of Drosophila Slit D1-4 (the four leucine-rich repeat domains) (Drosophila) (P24014 64-922): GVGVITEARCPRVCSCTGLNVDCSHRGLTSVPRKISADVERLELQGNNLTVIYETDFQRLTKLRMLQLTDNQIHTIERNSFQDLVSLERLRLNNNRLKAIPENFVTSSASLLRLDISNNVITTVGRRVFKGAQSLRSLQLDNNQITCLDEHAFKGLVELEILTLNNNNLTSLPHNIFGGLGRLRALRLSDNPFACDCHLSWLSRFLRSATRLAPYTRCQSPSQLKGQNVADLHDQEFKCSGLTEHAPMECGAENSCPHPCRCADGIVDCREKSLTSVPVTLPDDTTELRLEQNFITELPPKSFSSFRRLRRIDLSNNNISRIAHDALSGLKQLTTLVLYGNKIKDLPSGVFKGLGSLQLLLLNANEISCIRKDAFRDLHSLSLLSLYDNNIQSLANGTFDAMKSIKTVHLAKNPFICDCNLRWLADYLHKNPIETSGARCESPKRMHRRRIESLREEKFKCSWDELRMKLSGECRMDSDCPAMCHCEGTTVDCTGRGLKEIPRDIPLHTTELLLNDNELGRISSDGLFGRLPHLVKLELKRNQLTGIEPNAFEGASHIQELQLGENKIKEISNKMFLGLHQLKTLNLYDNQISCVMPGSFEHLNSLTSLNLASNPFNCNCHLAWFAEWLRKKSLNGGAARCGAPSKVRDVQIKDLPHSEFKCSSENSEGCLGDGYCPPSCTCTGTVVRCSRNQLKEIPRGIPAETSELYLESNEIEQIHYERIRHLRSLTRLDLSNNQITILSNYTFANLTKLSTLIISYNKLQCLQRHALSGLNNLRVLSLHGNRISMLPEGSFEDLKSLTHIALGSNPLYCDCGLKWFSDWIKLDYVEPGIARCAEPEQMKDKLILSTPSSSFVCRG

In the case of Drosophila Robo IG1–5 Fc (Fc fusion), the fold increase of the apparent affinity with 10 μg/ml heparin against no heparin is reported as greater than 10 fold.
